These results are taken from patent CN117866904A (BEILAI PHARMACEUTICAL CO LTD, dated 2024).

One assay addresses T1, Biotin-IL-17A-His (UniProt Q16552 24-155, limits assumed, biotinylated (Biotin-IL-17A-His); site not stated).
T1 construct: not shown: His tag
T1 sequence (looked up): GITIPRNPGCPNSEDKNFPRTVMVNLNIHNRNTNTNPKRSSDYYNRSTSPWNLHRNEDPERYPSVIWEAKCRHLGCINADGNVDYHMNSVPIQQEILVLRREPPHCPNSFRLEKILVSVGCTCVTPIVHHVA
Put plainly: ELISA: antibody coated at 2 ug/mL; Biotin-IL-17A-His titrated from 10 ug/mL, 5-fold, 7 points; HRP-streptavidin; OD450.

Assay [1] concerns the target T2, IL-17A重组蛋白(抗原), IL-17 antigen with a C-terminal 6×His tag, expressed in E. coli BL21 (human, UniProt Q16552 24-155, limits assumed).
T2 sequence: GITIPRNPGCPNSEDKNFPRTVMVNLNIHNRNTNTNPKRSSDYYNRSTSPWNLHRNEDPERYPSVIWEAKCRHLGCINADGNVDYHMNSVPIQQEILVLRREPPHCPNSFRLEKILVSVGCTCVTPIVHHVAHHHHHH
Kind of assay: cell-based or functional assay.

Assay [2] concerns the target 生物素化的IL-17A of the ACRO Biosystems IL-17A[Biotinylated]:IL-17RA Inhibitor Screening ELISA Kit (EP-139) (UniProt Q16552). Kind of assay: blocking ELISA kit: IL-17RA coated, biotinylated IL-17A; G4-H10-MSC supernatant diluted 5-fold; inhibition = [OD450 positive well - OD450 sample well]/OD450 positive well.

B1: 阳性对照抗体Ixekizumab (antibody, human IgG4 S228P, kappa, V domains shown)
VH: QVQLVQSGAEVKKPGSSVKVSCKASGYSFTDYHIHWVRQAPGQGLEWMGVINPMYGTTDYNQRFKGRVTITADESTSTAYMELSSLRSEDTAVYYCARYDYFTGTGVYWGQGTLVTVSS
VL: DIVMTQTPLSLSVTPGQPASISCRSSRSLVHSRGNTYLHWYLQKPGQSPQLLIYKVSNRFIGVPDRFSGSGSGTDFTLKISRVEAEDVGVYYCSQSTHLPFTFGQGTKLEIKR
notes: also called 阳性抗体
In the assay with Biotin-IL-17A-His, B1 came in with an EC50 of 10.1 µg/mL. In assay [1], the “IC50, 阻断Human IL-17A蛋白激活293F-IL-17RA-IL-17Rc-ACT1-NFκB-Luc报告基因细胞株” value is 2.23 nM.

B2: IL-17Nb secreted by G4-H10-MSC (G4-H10:Fc融合蛋白, VHH-(GGGGS)3-VHH-IgG4 Fc) (Fc fusion)
chain: QVQLVESGGGLVQPGGSLRLSCAASGEKLDYFAIGWFRQAPGKEREVVSCVTSSGSSTNYLSSVKDRFTISIDNAKNTVYLQMNSLKPEDTAIYYCASTILLCSDYISAFGTWGQGTQVTVASGGGGSGGGGSGGGGSEVQLVESGGGLVQPGGSLRLSCAASGFSIHIYAMGWYRQAPGKQRELVATITRGGVTNNADSVKGRFTISRDNAKNTAYLQMNSLKPEDTAVYYCNAGGTNGGYWGQGTQVTVSSAPEFLGGPSVFLFPPKPKDTLMISRTPEVTCVVVDVSQEDPEVQFNWYVDGVEVHNAKTKPREEQFNSTYRVVSVLTVLHQDWLNGKEYKCKVSNKGLPSSIEKTISKAKGQPREPQVYTLPPSQEEMTKNQVSLTCLVKGFYPSDIAVEWESNGQPENNYKTTPPVLDSDGSFFLYSRLTVDKSRWQEGNVFSCSVMHEALHNHYTQKSLSLSLGK
Molecule B2 gave a 结合抑制率 (IL-17A/IL17RA) in assay [2] of 60%.
